PMC9029856, “Impact of Different [Tc(N)PNP]-Scaffolds on the Biological Properties of the Small cRGDfK Peptide: Synthesis, In Vitro and In Vivo Evaluations” (Molecules, 2022)
Values joined by “and” are separate entries in the source; they are usually repeats but may differ in a detail not shown here. Equal entries are not always repeated. Where two headings read alike, the source gives them in different places.

Legend:
[1] = assay type: physicochemical
Description: To explore the impact of the PNP ligand on the lipophilicity of the complexes, Log Ps in a mixture of n-octanol and PBS were determined. The lipophilicity decreased in the order ^99mTc1 > ^99mTc2 > ^99mTc3. The lipophilic character of each compound correlated well with the corresponding HPLC retention time and protein binding behavior.
Determination of log P values. n-Octanol/PBS partition coefficients were determined by vortex mixing (20 min) 3.0 mL of n-octanol, 3.0 mL of PBS and 100 µL of the radiolabeled compound purified as above. After centrifugation (3000 g for 10 min), aliquots (100 µL) of both the organic and the aqueous phases were collected and counted with a γ-counter.

[2] = parameters: species or system Sprague Dawley rats; conditions: rat, in vivo, iv, 15 uCi/100 uL
Description: Pharmacokinetics and metabolism.
Female Sprague Dawley rats weighing 180–200 g were anesthetized with an intraperitoneal injection of a mixture of Zoletil (40 mg/kg) and xylazine (2 mg/kg). A jugular vein was surgically exposed, and the solution containing the radiolabeled peptide was injected (15 µCi/100 µL). The rats (n = 3) were scarified by cervical dislocation at different times after injection. The blood was withdrawn from the heart with a syringe immediately after death and quantified. Organs were excised, rinsed in saline, weighed, and the activity was counted in a NaI counter. The results were expressed as the percentage of injected activity per gram of tissue (%IA/g) to be able to compare our results with those reported in the literature.

[3] = parameters: species or system Sprague Dawley rats; conditions: rat, in vivo
Description: As expected, MRT values of liver and kidneys were much higher than the dose of stomach, spleen, lung, and heart.
The time–activity curves of the main organs were obtained using the biodistribution data (%IA/organ) as input for the CoKiMo spreadsheet software. Then, the organ mean residence times (MRT) were computed by integration of the organ activity curves, extrapolated until 5 half-lives of Tc-99m (30 h) and corrected for its physical decay, to evaluate the pharmacokinetic profile of each radiolabeled peptide.

[4] = system: M21 (αvβ3-positive) and M21L (αvβ3-negative) melanoma tumors; assay type: in vivo, NSG mice; conditions: 120 min p.i.
Description: In vivo tumor uptake. The in vivo integrin targeting properties of the [^99mTcN(PNP)]-labeled peptide were evaluated in M21 (integrin-positive) and M21L (integrin-negative) melanoma-bearing mice by comparing the percentage of tumor uptake of the three compounds in tumors and the respective target-to-non-target ratios. Biodistribution data outlined some differences in organ uptake compared with those attained in rats at the same injection time because the rate of metabolism is different in each animal species. […] The high renal uptake of radiotracers is partially due to their rate of excretion as well as to a specific uptake by integrins expression in the kidneys; for ^99mTc3, the M21-to-kidney ratio was 1.37.
Human melanoma M21(αvβ3-positive) were injected subcutaneously (s.c. 1 × 10^6 cells) in the right flank of six week-old male NSG mice (Charles River Laboratories). As a negative control, M21L (αvβ3-negative) were inoculated s.c. (1 × 10^6 cells) in the left flank of the same mice. Fifteen days after the inoculation, when the tumors are palpable (5–3 mm), the mice were injected in the tail vein with the selected radiolabeled peptide (20 µCi/100 µL of PBS). A group of six animals was sacrificed at 120 min p.i. by CO2 inhalation. A sample of blood was collected and tumors and normal tissues of interest were dissected, rinsed to remove the excess of blood, weighted, and their radioactivity measured using a NaI counter. Results are expressed as the percentage of injected activity per gram (% IA/g) and tumor-to-organ ratios were calculated.

[Tc(N)(H2NS-cRGDfK)(PNP3OH)]^+ [^99mTc3]
Log P [1]: −2.39
Blood ([2]; 0.5 h): 0.46 ± 0.07 %IA/g
Heart ([2]; 0.5 h): 0.25 ± 0.06 %IA/g
Intestine ([2]; 0.5 h): 1.29 ± 0.13 %IA/g
Kidneys ([2]; 0.5 h): 5.22 ± 0.44 %IA/g
Liver ([2]; 0.5 h): 0.90 ± 0.09 %IA/g
Lungs ([2]; 0.5 h): 0.62 ± 0.08 %IA/g
Muscle ([2]; 0.5 h): 0.17 ± 0.01 %IA/g
Spleen ([2]; 0.5 h): 0.43 ± 0.05 %IA/g
Stomach ([2]; 0.5 h): 0.72 ± 0.04 %IA
Urine ([2]; 0.5 h): 27.8 ± 5.6 %IA
Blood ([2]; 1 h): 0.25 ± 0.03 %IA/g
Heart ([2]; 1 h): 0.15 ± 0.00 %IA/g
Intestine ([2]; 1 h): 1.95 ± 0.17 %IA/g
Kidneys ([2]; 1 h): 4.83 ± 0.35 %IA/g
Liver ([2]; 1 h): 0.80 ± 0.06 %IA/g
Lungs ([2]; 1 h): 0.49 ± 0.01 %IA/g
Muscle ([2]; 1 h): 0.13 ± 0.01 %IA/g
Spleen ([2]; 1 h): 0.39 ± 0.04 %IA/g
Stomach ([2]; 1 h): 0.64 ± 0.08 %IA
Urine ([2]; 1 h): 31.2 ± 3.0 %IA
Blood ([2]; 2 h): 0.16 ± 0.01 %IA/g
Heart ([2]; 2 h): 0.13 ± 0.02 %IA/g
Intestine ([2]; 2 h): 3.76 ± 0.27 %IA/g
Kidneys ([2]; 2 h): 4.44 ± 0.32 %IA/g
Liver ([2]; 2 h): 0.75 ± 0.09 %IA/g
Lungs ([2]; 2 h): 0.37 ± 0.06 %IA/g
Muscle ([2]; 2 h): 0.12 ± 0.00 %IA/g
Spleen ([2]; 2 h): 0.36 ± 0.02 %IA/g
Stomach ([2]; 2 h): 0.57 ± 0.03 %IA
Urine ([2]; 2 h): 44.2 ± 10.9 %IA
Blood ([2]; 4 h): 0.09 ± 0.01 %IA/g
Heart ([2]; 4 h): 0.12 ± 0.03 %IA/g
Intestine ([2]; 4 h): 4.17 ± 0.59 %IA/g
Kidneys ([2]; 4 h): 4.22 ± 0.45 %IA/g
Liver ([2]; 4 h): 0.67 ± 0.04 %IA/g
Lungs ([2]; 4 h): 0.32 ± 0.02 %IA/g
Muscle ([2]; 4 h): 0.08 ± 0.00 %IA/g
Spleen ([2]; 4 h): 0.34 ± 0.04 %IA/g
Stomach ([2]; 4 h): 0.46 ± 0.04 %IA
Urine ([2]; 4 h): 30.2 ± 9.45 %IA
MRT Blood [3]: 14.5 min
MRT Heart [3]: 0.4 min
MRT Kidney [3]: 36.7 min
MRT Liver [3]: 26.7 min
MRT Lung [3]: 1.6 min
MRT Spleen [3]: 0.8 min
MRT Stomach [3]: 2.1 min
M21/M21L ratio [4]: 5.60
M21/blood ratio [4]: 73.42
M21/kidneys ratio [4]: 1.23
M21/liver ratio [4]: 1.11
M21/lung ratio [4]: 2.98
M21/muscle ratio [4]: 16.72
M21L tumor uptake ([4]; integrin-negative M21L control tumor): 0.70 ± 0.16 %IA/g
M21 tumor uptake ([4]; integrin-positive M21 xenograft): 3.9 ± 0.7 %IA/g and 3.92 ± 0.69 %IA/g
Blood ([4]; tumor-bearing mice): 0.05 ± 0.01 %IA/g
Heart ([4]; tumor-bearing mice): 0.44 ± 0.09 %IA/g
Intestine ([4]; tumor-bearing mice): 3.09 ± 0.62 %IA/g
Kidneys ([4]; tumor-bearing mice): 3.34 ± 0.18 %IA/g
Liver ([4]; tumor-bearing mice): 3.22 ± 0.24 %IA/g
Lungs ([4]; tumor-bearing mice): 1.32 ± 0.20 %IA/g
Muscle ([4]; tumor-bearing mice): 0.23 ± 0.03 %IA/g
Spleen ([4]; tumor-bearing mice): 1.43 ± 0.19 %IA/g
Stomach ([4]; tumor-bearing mice): 1.05 ± 0.14 %IA
